Legend:
Assay in all cases: cell-based or functional assay
[1] = target: human Kv1.2 potassium channel (α-subunit) (human), P16389
[2] = target: T1, human Kv1.1 potassium channel (α-subunit) (human), Q09470
T1 chain: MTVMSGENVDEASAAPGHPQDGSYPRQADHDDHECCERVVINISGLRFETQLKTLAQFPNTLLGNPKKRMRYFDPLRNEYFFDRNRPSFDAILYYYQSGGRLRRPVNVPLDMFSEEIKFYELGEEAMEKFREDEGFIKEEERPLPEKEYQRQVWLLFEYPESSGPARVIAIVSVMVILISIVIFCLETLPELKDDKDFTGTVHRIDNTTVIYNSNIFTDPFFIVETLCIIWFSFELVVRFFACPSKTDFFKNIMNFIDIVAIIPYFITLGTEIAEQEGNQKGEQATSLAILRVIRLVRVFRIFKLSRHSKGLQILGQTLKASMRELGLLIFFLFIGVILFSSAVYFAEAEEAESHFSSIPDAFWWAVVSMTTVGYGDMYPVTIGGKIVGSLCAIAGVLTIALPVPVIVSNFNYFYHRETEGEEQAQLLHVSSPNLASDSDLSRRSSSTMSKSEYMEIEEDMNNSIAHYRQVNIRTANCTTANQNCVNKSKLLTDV

[3] = target: human Kv1.3 potassium channel (potassium voltage-gated channel subfamily A member 3, α-subunit) (human), P22001
Chain of human Kv1.3 potassium channel (potassium voltage-gated channel subfamily A member 3, α-subunit) (human), P22001 (P22001 whole entry): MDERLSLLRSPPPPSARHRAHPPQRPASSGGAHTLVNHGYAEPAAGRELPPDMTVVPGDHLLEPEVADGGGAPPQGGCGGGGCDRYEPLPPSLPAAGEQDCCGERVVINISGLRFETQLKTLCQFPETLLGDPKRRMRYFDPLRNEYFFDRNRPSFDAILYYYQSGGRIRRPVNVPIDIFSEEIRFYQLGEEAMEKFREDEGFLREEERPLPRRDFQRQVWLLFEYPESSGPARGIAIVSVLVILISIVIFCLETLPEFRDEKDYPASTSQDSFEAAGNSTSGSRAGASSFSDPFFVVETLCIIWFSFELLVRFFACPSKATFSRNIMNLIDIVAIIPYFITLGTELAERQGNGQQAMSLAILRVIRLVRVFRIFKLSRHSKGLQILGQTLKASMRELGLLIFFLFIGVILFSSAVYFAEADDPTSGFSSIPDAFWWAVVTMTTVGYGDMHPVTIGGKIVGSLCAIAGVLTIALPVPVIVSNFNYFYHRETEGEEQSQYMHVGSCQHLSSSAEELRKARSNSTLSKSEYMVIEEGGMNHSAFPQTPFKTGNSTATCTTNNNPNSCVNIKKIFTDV

[4] = target: T2, human Kv1.6 potassium channel (α-subunit) (human), P17658
T2 chain: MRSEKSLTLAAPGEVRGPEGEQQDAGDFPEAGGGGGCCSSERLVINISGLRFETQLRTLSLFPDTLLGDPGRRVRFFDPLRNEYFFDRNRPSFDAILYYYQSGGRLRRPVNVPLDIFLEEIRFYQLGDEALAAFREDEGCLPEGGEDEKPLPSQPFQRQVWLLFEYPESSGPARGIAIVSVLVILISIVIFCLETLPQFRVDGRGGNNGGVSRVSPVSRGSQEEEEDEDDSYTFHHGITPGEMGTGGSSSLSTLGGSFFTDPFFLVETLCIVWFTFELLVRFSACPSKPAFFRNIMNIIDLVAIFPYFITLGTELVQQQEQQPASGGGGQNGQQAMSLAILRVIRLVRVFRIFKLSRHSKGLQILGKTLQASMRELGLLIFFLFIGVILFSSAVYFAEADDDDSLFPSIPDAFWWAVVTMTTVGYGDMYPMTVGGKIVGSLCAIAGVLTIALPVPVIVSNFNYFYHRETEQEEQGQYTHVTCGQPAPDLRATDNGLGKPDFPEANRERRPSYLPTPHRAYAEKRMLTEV

Chain of human Kv1.2 potassium channel (α-subunit) (human), P16389 (P16389 whole entry): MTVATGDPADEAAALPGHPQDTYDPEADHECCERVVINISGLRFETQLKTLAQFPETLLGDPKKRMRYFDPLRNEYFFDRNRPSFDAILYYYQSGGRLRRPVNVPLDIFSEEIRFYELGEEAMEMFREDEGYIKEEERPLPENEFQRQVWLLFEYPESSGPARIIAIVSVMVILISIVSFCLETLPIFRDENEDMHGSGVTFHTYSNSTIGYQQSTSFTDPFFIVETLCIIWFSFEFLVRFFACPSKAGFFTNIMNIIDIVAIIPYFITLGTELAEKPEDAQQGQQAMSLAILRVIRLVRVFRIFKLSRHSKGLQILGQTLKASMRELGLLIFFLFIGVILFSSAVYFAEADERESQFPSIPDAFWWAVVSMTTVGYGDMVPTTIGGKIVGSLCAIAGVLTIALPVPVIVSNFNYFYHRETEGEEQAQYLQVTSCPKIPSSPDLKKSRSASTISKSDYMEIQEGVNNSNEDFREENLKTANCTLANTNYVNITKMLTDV

## QMDMRCSASVECKQKCLKAIGSIFGKCMNKKCKCYPR (modifications not checked) [Compound 1 (PaT1)]
[1]
  Potency IC50 (patch clamp): 518 nM
  Selectivity Kv1.2/Kv1.3: 1360
[2]
  Potency IC50 (patch clamp): > 3000 nM
  Selectivity Kv1.1/Kv1.3: > 7900
[3]
  Potency IC50 (patch clamp): 0.38 nM
  anti-CD3 PBMC/IL-2 IC50: 0.09 nM
[4]
  Potency IC50 (patch clamp): > 3000 nM
  Selectivity Kv1.6/Kv1.3: > 7900
